These results are taken from article PMC3828167 (PLoS Pathogens, 2013).

This assay deals with Legionella pneumophila RalF Sec7 domain (LpRalF^Sec7, residues 1-201) (Legionella pneumophila, UniProt Q8RT31 1-201). As to the kind of experiment: SEC. Conditions: both partners purified.

B1: Human Arf1 lacking its N-terminal alpha-helix (Δ17Arf1) (domain or fragment)
chain: not shown
notes: also called Arf1-GDP; nucleotide-free Arf1
On to B1, for which the binding result was “binds”.
